Article PMC12704761, “RAD51AP1 is a versatile RAD51 modulator” (Proceedings of the National Academy of Sciences of the …, 2025)

B1: RAD51AP1 (RAD51 associated protein 1), full-length wild type [not stated] / RAD51 recombinase [not stated] (parent complex)
chain 1: MVRPVRHKKPVNYSQFDHSDSDDDFVSATVPLNKKSRTAPKELKQDKPKPNLNNLRKEEIPVQEKTPKKRLPEGTFSIPASAVPCTKMALDDKLYQRDLEVALALSVKELPTVTTNVQNSQDKSIEKHGSSKIETMNKSPHISNCSVASDYLDLDKITVEDDVGGVQGKRKAASKAAAQQRKILLEGSDGDSANDTEPDFAPGEDSEDDSDFCESEDNDEDFSMRKSKVKEIKKKEVKVKSPVEKKEKKSKSKCNALVTSVDSAPAAVKSESQSLPKKVSLSSDTTRKPLEIRSPSAESKKPKWVPPAASGGSRSSSSPLVVVSVKSPNQSLRLGLSRLARVKPLHPNATST
chain 2: MAMQMQLEANADTSVEEESFGPQPISRLEQCGINANDVKKLEEAGFHTVEAVAYAPKKELINIKGISEAKADKILAEAAKLVPMGFTTATEFHQRRSEIIQITTGSKELDKLLQGGIETGSITEMFGEFRTGKTQICHTLAVTCQLPIDRGGGEGKAMYIDTEGTFRPERLLAVAERYGLSGSDVLDNVAYARAFNTDHQTQLLYQASAMMVESRYALLIVDSATALYRTDYSGRGELSARQMHLARFLRMLLRLADEFGVAVVITNQVVAQVDGAAMFAADPKKPIGGNIIAHASTTRLYLRKGRGETRICKIYDSPCLPEAEAMFAINADGVGDAKD

Variants of: B1
Test: BLI; RAD51 about 2.5 µM (highest point, read from the x axis); read off a plot

response [nm] | Variant
~0.005 | chain 1 R333A, chain 1 L334A, chain 1 L336A
